From the supplement of paper PMC10567573

B1: VPS39 (parent)
chain: LRLENNHCHIEESEHVLKKAHKYS
B2: DVL3 (parent)
chain: YNPHPGFPELGYSYGGGSASSQHS

Variants of: B1
Experiment: protein stability index of a GFP-peptide fusion (GPS, HEK-293T) (PSI 1-6); higher = more stable
Details: c terminus: a fixed tail appended
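Also: lentivirally expressed fusions sorted by FACS into six bins by GFP to DsRed ratio, PSI derived from sequencing read proportions per bin multiplied by bin number.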

Protein stability index: each site, then its substitutions
I10: S 3.33, W 2.43, L 1.9, A 3.75, K 3.33, Q 3, E 3.08, F 2.11, H 3.17, Y 2.57, D 3.53, T 3.02, V 2.68, N 2.73, R 3.01, M 2.34, G 2.74, C 3.18, P 3.1
S13: K 2.92, A 2.69, W 1.01, E 2.26, C 2.06, H 2.18, N 2.12, G 2.56, R 2.15, D 2.49, P 2.63, M 1.64, V 2.76, Y 2.75, I 1.32, T 2.37, Q 1.82, F 1.73, L 1.95
E12: Y 3.21, L 3.66, T 2.01, H 2.75, N 2.44, C 2.11, I 1.96, Q 2.15, V 1.35, K 2.94, A 2.19, P 1.93, G 2.26, R 2.14, D 3.1, S 2.61, W 1.78, F 1.24, M 2.68
E4: T 2.56, I 2.17, L 2.35, M 2.65, V 2.71, K 3.45, G 2.41, Y 2.53, P 2.83, D 3.12, R 3.45, F 2.54, Q 2.92, H 3.32, N 3.92, C 2.44, S 2.71, W 2.44, A 2.68
N5: D 1.94, L 2.23, R 2.77, A 2.23, Y 2.37, V 1.48, T 2.48, I 2.22, E 2.46, F 1.27, P 2.29, K 3.08, C 2.22, M 2.33, S 1.98, W 1.74, H 1.91, G 1.91, Q 2.18
H7: V 2.35, F 2.03, R 2.9, T 2.88, Q 2.34, P 3.01, K 2.84, W 2.17, I 2.15, N 3.37, D 2, G 1.97, L 2.32, E 2.38, A 2.79, C 2.15, Y 2.79, M 2.46, S 2.04
E14: C 1.37, K 2.29, I 1.88, M 1.73, D 2.12, H 2.33, F 1.46, L 2.16, A 2.38, N 2.31, G 2.56, P 2.4
R2: F 2.62, S 3.62, N 3.55, E 4.59, Y 2.79, C 3.15, W 2.15, I 2.54, D 4.26, T 3.81, A 3.68, Q 4.11, M 2.66, H 3.55, G 4.24, P 4.55, V 2.44, K 3.12, L 2.54
C8: I 2.15, A 3.17, Y 1.86, M 2.43, L 2.47, K 3.3, P 2.53, Q 2.27, H 3.03, V 1.88, N 2.38, S 2.88, G 2.27, E 2.35, R 2.95, D 3.58, T 3.19, F 2.29, W 2.4
N6: T 2.35, F 1.75, H 3.16, P 2.12, V 2.13, E 3.13, K 3.49, R 2.49, W 1.97, A 2.72, M 1.87, Q 2.63, C 2.44, S 2.55, G 2.66, Y 2.23, I 2.33, L 2.58, D 2.54
L3: T 3.06, S 3.33, E 4.58, D 3.12, N 3.17, H 3.6, A 3.55, Q 4.06, G 4.43, V 2.38, M 3.13, K 4.32, P 3.7, W 3.01, I 2.62, Y 2.56, R 4.51, F 2.09
E11: P 2.26, V 1.97, M 2.31, A 3.06, C 1.99, L 2.86, H 2.52, I 2.12, Y 3.06, Q 2.06, G 2.72, N 2.19, D 2.65, K 2.79, T 2.49, R 3.35, W 2.75, S 3.04, F 1.75
L1: Y 4.1, R 3.48, C 3.29, V 2.29, A 3.91, I 3.44, T 4.32, S 4.19, K 4.2, M 2.99, N 3.65, E 4.29, F 2.3, P 3.79, Q 4.08, G 4.6, H 4.02, D 4.36, W 3.14
H9: M 2.42, N 2.27, T 3.29, Q 2.57, G 2.7, E 1.59, I 2.19, P 1.8, D 2.68, C 2.86, L 1.84, Y 1.92, F 1.92, W 2.18, A 2.2, R 2.83, K 3.59, V 2.4, S 3.23

Variants of: B2
Experiment: as above
Details: c terminus: a fixed tail appended

Protein stability index, by site and new letter:
H23: I 2.9, L 2.86, S 2.62, C 2.38, Q 2.58, K 2.87, D 3.14, P 2.79, G 2.78, Y 2.92, R 3, V 2.32, F 2.37, E 2.6, A 2.62, M 3.04, N 2.99, T 3.2, W 2.19
S21: R 2.86, P 2.88, N 2.62, A 3.1, H 2.55, I 2.56, L 2.24, V 3.41, G 2.61, W 1.95, F 1.88, Y 2.37, E 2.96, K 2.54, C 2.1, D 3.01, Q 2.79, T 2.64, M 2.89
S24: N 2.42, P 3.36, D 3.13, G 3.11, E 2.41, I 2.56, H 2.33, F 2.14, R 1.87, Y 2.26, L 2.62, A 2.33, V 2.41, T 1.78, M 2.44, K 2.76, W 2.03
S20: W 1.95, Y 1.79
Q22: L 1.67, W 2.06, F 2.88, N 2.6, M 2.08, C 2.13, K 3.4, R 2.58, T 3.69, G 2.62, H 2.73, P 2.98, D 3.41, E 2.85, Y 2.4, V 2.33, I 2.33, A 2.23, S 2.71
